Data taken from US20220106400A1.
pEC50: −log10 of the molar value.

Columns and labels:
hCD64 (FcgRI) (human) [1] = molecular target: hCD64 (FcgRI) (human) (UniProt P12314); assay: told in the description as a result of the Examples; method not given
[2] = molecular target: human GITR on activated human CD4 T cells (human) (UniProt Q9Y5U5); assay: FACS binding to anti-CD3/CD28-activated human CD4 T cells
hCD64 (FcgRI) (human) [3] = molecular target: hCD64 (FcgRI) (human) (UniProt P12314); assay: FcR binding, Example 16

Sequence of hCD64 (FcgRI) (human) (P12314 16-288 limits assumed): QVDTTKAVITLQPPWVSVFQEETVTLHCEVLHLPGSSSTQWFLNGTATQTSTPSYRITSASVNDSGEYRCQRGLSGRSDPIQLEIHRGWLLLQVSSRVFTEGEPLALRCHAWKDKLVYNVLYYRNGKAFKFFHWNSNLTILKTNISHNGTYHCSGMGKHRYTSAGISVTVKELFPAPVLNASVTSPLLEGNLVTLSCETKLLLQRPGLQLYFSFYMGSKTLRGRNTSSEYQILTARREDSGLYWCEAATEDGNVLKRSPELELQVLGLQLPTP
Sequence of human GITR on activated human CD4 T cells (human) (Q9Y5U5 26-241): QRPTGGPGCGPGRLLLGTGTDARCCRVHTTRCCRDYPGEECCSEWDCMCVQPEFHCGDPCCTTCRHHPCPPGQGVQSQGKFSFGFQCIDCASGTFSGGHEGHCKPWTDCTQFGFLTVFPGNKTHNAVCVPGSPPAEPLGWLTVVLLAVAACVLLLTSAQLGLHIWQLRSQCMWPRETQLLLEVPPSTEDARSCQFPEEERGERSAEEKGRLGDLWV

pEC50 [2]	other results	Substance
–	fold reduction of binding relative to wildtype IgG1 (hCD64 (FcgRI) (human) [1]): 100 fold	antibody with IgG1 P238K (Example 13)
8.17	–	unrelated hIgG2
6.88	–	unrelated hIgG1
–	fold reduction of CD64 binding against P238K alone (hCD64 (FcgRI) (human) [3]): 1000 fold	antibody with IgG1f-L235E-P238K heavy chain constant domain (Example 16)
